Residue numbers refer to the chain shown, from its start.
B1: Antibody 20 IgG1, not germlined (antibody, V domains shown)
VH: QVQLQQSGAEVKKPGSSVKVSCKASGGTFSSYAISWVRQAPGQGLEWMGGIIPTFGTANYAQKFQGRVTITADESTSTAYMELSSLRSEDTAVYYCAREKRQWLEGHFDYWGRGTLVTVSS
VL: DIQMTQSPSTLSASVGDRVTITCRASEGIYHELAWYQQKPGKAPKLLIYRASSLASGVPSRFSGSRSGTEFTLTISSLQPDDFATYYCQQYSDYPLTFGGGTKVEIK
notes: IgG1; also called Ab 20
B2: Antibody 14 scFv (scFv)
chain: QVQLQQSGAEVKKPGSSVKVSCKASGGTFSSYAISWVRQAPGQGLEWMGGIIPTFGTANYAQKFQGRVTITADESTSTAYMELSGLRSEDTAVYYCAREKRQWLEGHFDYWGRGTLVTVSSDIQMTQSPSFLSASIGDRVTITCRASEGIYHNLAWYQQKPGKAPKLLIYRASSLASGAPSRFSGSGSGTDFTFTISSLQPDDFATYYCQQYSNYPLTFGGGTKLEIK
B3: Antibody 15 scFv (scFv)
chain: B2 chain with L116P, T126A, F194L, K228R
B4: Antibody 09 scFv (scFv)
chain: B2 chain with T54A, G56D, L116P, R145Q, F194L
B5: Antibody 20 scFv (scFv)
chain: B2 chain with G85S, F131T, I136V, N153E, A179V, G187R, D191E, F194L, N214D, L225V
B6: Antibody 27 scFv (scFv)
chain: B2 chain with T28A, L116P, F194L
B7: Antibody 01 scFv (scFv)
chain: QVQLVQSGAEVKKPGSSVKVSCKASGGTFSSYAISWVRQAPGQGLEWMGGIIPIFGTANYAQKFQGRVTITADESTSTAYMELSSLRSEDTAVYYCAREKRQWLEGHFDYWGRGTLVTVSSDIQMTQSPSTLSASVGDRVTITCRASEGIYRSLAWYQQKPGKAPKLLIYKASSLASGVPSRFSGSGSGTEFTLTISSLQPDDFATYYCQQYSNYPLTFGGGTKVEIK
B8: Antibody 27 IgG1, not germlined (antibody, V domains shown)
VH: B1 VH with T28A, S85G, L116P
VL: B1 VL with T10F, V15I, E32N, V58A, R66G, E70D, D93N, V104L
notes: IgG1; also called Ab 27
B9: Antibody 16 scFv (scFv)
chain: B7 chain with I54T, G149S, R152H, G187R
B10: Antibody 16 IgG1, not germlined (antibody, V domains shown)
VH: B1 VH with Q5V
VL: B1 VL with G28S, E32S, R50K, D93N
notes: IgG1; also called Ab 16
B11: Antibody 01 IgG4, not germlined (antibody, V domains shown)
VH: B1 VH with Q5V, T54I
VL: B1 VL with H31R, E32S, R50K, R66G, D93N
notes: IgG4; also called Ab 01
B12: Antibody 02 IgG4, not germlined (antibody, V domains shown)
VH: B1 VH with Q5V
VL: B1 VL with E32S, R50K, R66G
notes: IgG4; also called Ab 02

These binders were tested against T1, cynomolgus PAI-1 (cynomolgus, UniProt P05121 24-402 (human entry), limits assumed) (assay: cell-based or functional assay).

Compared with B1, B3 is lower in “Chromogenic IC50 ratio cyno/human” value: 0.5 fold for the first, 0.3 fold for the second.

With B7 the “Chromogenic IC50 ratio cyno/human” value was 0.4 fold.

Compared with B2, B3 is 2.8-fold higher in “Chromogenic (IC50 in nM) cyno” value: 0.8 nM for the first, 2.2 nM for the second.

First: B4
Second: B5
The “Chromogenic (IC50 in nM) cyno” value of the first is 1.9-fold lower: 0.7 nM for the first, 1.3 nM for the second.

Going from B6 to B7, the “Chromogenic (IC50 in nM) cyno” value falls from 2.2 nM to 1.2 nM (1.8-fold).

What follows are binders tested against T2, rat PAI-1 (rat, UniProt P20961 24-402) (assay: cell-based or functional assay).
T2 sequence: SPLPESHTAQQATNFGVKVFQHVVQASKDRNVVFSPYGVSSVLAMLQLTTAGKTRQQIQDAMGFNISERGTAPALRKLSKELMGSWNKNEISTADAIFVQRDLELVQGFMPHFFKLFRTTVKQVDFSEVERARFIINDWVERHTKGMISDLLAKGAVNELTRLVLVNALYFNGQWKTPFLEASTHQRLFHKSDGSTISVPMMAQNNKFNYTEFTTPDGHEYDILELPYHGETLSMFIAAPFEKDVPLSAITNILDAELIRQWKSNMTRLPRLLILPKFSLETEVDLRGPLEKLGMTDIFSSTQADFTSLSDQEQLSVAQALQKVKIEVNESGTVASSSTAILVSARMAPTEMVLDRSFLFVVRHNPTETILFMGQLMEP

First: B1
Second: B8
The “Chromogenic IC50 ratio rat/human” value of the first is lower: 1.8 fold for the first, 5.4 fold for the second.

First: B3
Second: B7
The “Chromogenic IC50 ratio rat/human” value of the first is lower: 8.9 fold for the first, 60.5 fold for the second.

Going from B2 to B3, the “Chromogenic (IC50 in nM) rat” value rises from 23.1 nM to 64.2 nM (2.8-fold).

Going from B4 to B6, the “Chromogenic (IC50 in nM) rat” value rises from 29.7 nM to 49.8 nM (1.7-fold).

Compared with B7, B9 is 37-fold lower in “Chromogenic (IC50 in nM) rat” value: 208 nM for the first, 5.6 nM for the second.

Each binder was assayed against T3, active human PAI-1, recombinant, wild-type, non-glycosylated (E. coli) (human, UniProt P05121 24-402) (assay: cell-based or functional assay).

Compared with B3, B7 is 2.1-fold lower in “Chromogenic (IC50 in nM) human” value: 7.2 nM for the first, 3.4 nM for the second.

The binders below were run against T4, mouse PAI-1 (mouse, UniProt P22777 24-401) (assay: cell-based or functional assay).
T4 sequence: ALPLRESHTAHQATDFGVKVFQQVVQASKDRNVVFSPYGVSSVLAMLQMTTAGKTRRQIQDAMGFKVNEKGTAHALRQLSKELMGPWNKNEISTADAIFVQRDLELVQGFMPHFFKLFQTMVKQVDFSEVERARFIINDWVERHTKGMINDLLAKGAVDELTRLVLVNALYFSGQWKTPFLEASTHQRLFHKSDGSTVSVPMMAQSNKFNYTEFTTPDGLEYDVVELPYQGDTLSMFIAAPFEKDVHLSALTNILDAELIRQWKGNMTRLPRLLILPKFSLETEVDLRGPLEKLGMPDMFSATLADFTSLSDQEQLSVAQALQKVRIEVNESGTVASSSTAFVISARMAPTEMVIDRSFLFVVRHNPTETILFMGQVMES

Going from B1 to B8, the “Chromogenic IC50 ratio mouse/human” value rises from 0.9 fold to 3.3 fold.

Going from B3 to B7, the “Chromogenic IC50 ratio mouse/human” value falls from 9.3 fold to 8.2 fold.

Compared with B3, B5 is 14-fold lower in “Chromogenic (IC50 in nM) mouse” value: 66.9 nM for the first, 4.9 nM for the second.

First: B7
Second: B9
The “Chromogenic (IC50 in nM) mouse” value of the first is 6.6-fold higher: 28.3 nM for the first, 4.3 nM for the second.

Target: T1, cynomolgus PAI-1
Assay: cell-based or functional assay
Remark: another data set of the same source

For B9, the “IC50, cyno chromogenic assay (FIG. 2b)” value was 0.8 nM.

Target: T3, active human PAI-1, recombinant, …
Assay: cell-based or functional assay
Remark: another data set of the same source

For B9, the “IC50, human chromogenic assay (FIG. 2a)” value was 3.6 nM.

Target: T5, rabbit PAI-1 (rabbit)
T5 chain: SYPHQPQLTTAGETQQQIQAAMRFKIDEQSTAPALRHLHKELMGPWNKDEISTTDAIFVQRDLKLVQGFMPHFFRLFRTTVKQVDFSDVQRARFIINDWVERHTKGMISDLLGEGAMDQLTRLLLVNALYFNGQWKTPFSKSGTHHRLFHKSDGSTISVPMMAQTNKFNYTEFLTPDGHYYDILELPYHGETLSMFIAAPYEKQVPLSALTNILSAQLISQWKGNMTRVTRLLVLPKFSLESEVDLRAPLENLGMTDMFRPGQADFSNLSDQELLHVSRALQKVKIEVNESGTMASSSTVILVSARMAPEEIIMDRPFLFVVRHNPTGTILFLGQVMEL
Assay: competition ELISA, IgG on plate, biotinylated active human PAI-1 against titrated unlabelled competitor

Compared with B1, B10 is lower in IC50 ratio rabbit/wt: 9.1 fold for the first, 7.9 fold for the second.

Compared with B11, B12 is lower in IC50 ratio rabbit/wt: 9 fold for the first, 4.8 fold for the second.

B8 gave an IC50 ratio rabbit/wt of 85 fold.

What follows are binders tested against T2, rat PAI-1 in the same assay as above.

First: B1
Second: B8
The IC50 ratio rat/wt of the first is higher: 2.3 fold for the first, 1.2 fold for the second.

These binders were tested against T6, latent human PAI-1 (human, UniProt P05121 24-402) in the same assay as above.
T6 construct: also called latent PAI-1

Going from B1 to B8, the IC50 ratio latent/wt falls from 7.5 fold to 6.8 fold.

What follows are binders tested against T4, mouse PAI-1 in the same assay as above.

Going from B1 to B8, the IC50 ratio mouse/wt falls from 7.6 fold to 6.1 fold.

Target: T2, rat PAI-1
Assay: cell-based or functional assay
Remark: another data set of the same source

B2 and B3 are within 1.5-fold of each other in “HT-1080 Exo PAI-1 (IC50 in nM) rat” value: 52 nM for the first, 57 nM for the second.

B4 and B5 are within 1.5-fold of each other in “HT-1080 Exo PAI-1 (IC50 in nM) rat” value: 52.7 nM for the first, 42.4 nM for the second.

First: B6
Second: B9
The “HT-1080 Exo PAI-1 (IC50 in nM) rat” value of the first is 1.6-fold lower: 33.8 nM for the first, 52.6 nM for the second.

Target: T3, active human PAI-1, recombinant, …
Assay: cell-based or functional assay
Remark: another data set of the same source

B2 and B3 are within 1.5-fold of each other in “HT-1080 Exo PAI-1 (IC50 in nM) human” value: 28 nM for the first, 36 nM for the second.

B4 and B5 are within 1.5-fold of each other in “HT-1080 Exo PAI-1 (IC50 in nM) human” value: 23 nM for the first, 19.1 nM for the second.

B6 and B7 are within 1.5-fold of each other in “HT-1080 Exo PAI-1 (IC50 in nM) human” value: 18.8 nM for the first, 23.9 nM for the second.

For B9, the “HT-1080 Exo PAI-1 (IC50 in nM) human” value was 16.9 nM.

Target: T4, mouse PAI-1
Assay: cell-based or functional assay
Remark: another data set of the same source

Compared with B2, B3 is 1.7-fold higher in “HT-1080 Exo PAI-1 (IC50 in nM) mouse” value: 22 nM for the first, 37 nM for the second.

B4 and B5 are within 1.5-fold of each other in “HT-1080 Exo PAI-1 (IC50 in nM) mouse” value: 21 nM for the first, 18.1 nM for the second.

Compared with B6, B7 is 2.1-fold higher in “HT-1080 Exo PAI-1 (IC50 in nM) mouse” value: 16.4 nM for the first, 34.5 nM for the second.

With B9 the “HT-1080 Exo PAI-1 (IC50 in nM) mouse” value was 17.6 nM.
